These results are taken from patent US20260144239A1, “Immune Cell-Engrafted Non-Human Animals and Non-Human Animal Models” (LAPIX Therapeutics, Inc., priority 2022, published 2026).

In one data set the test system is humans. The note with it: in vivo; cited from earlier work.
Data set [1] has as its system engrafted mice. The data set can be described thus: Human CD20 on B cells of engrafted mice that developed antibodies (flow cytometry). The format is in vivo, mouse. The note with it: CD20+/CD19+ cells (FIGS. 9A-9C). The source says: Presence of human CD20 was detected on B cells of mice that developed antibodies to different biologics. CD20 is expressed on activated, antibody-producing B cells.
(In general: In flow cytometry, cells or beads pass a laser one at a time.)

A further data set concerns C57B/6 control mice. The data set can be described thus: Immunogenicity in C57B/6 control mice, antibody titers by ELISA. The format is in vivo, mouse. Here is the method:
(§1) Three healthy human donors were used to generate three engrafted mice designated HD1, HD2 and HD3. On Day 29 and Day 36, HD1, HD2 and HD3 were administered FVIII. The same amounts of antigen were administered to three C57B/6 control mice on the same date. Two weeks later (on Day 43), blood from each mouse was collected. Titers of mouse anti-FVIII antibodies, human anti-FVIII antibodies, mouse anti-GAA antibodies and human anti-GAA antibodies were measured using ELISA (FIGS. 8A-8B).
(§2) Three healthy human donors were used to generate three engrafted mice designated HD1, HD2 and HD3. On Day 29 and Day 36, HD1, HD2 and HD3 were administered GAA. The same amounts of antigen were administered to three C57B/6 control mice on the same date. Two weeks later (on Day 43), blood from each mouse was collected. Titers of mouse anti-GAA antibodies, human anti-GAA antibodies, mouse anti-FVIII antibodies and human anti-FVIII antibodies were measured using ELISA (FIGS. 8C-8D).
(§3) Healthy human donors were used to generate eight engrafted mice. […] The same amount of antigen was administered to three C57B/6 control mice on the same date. Two weeks later (on Day 43), blood from each mouse was collected.
(§4) Healthy human donors were used to generate 11 engrafted mice. […] The same amount of antigen was administered to three C57B/6 control mice on the same date. Two weeks later (on Day 43), blood from each mouse was collected.
On the technique in general: ELISA stands for enzyme-linked immunosorbent assay.

Data set [2] has as its system engrafted mice. Nature of the data set: Immunogenicity in engrafted mice (NRGS mice with human immune system), antibody titers by ELISA. The format is in vivo, mouse. Here is the method: as §1, §2, §3, §4

Regarding “GAA: biologic antigen administered to engrafted and C57B/6 mice; abbreviation not spelled out in the text”, in the data set with humans, the “clinically reported immunogenicity rate in humans” value was 89-100%. Also, in the data set on engrafted mice [1], the “CD20-expressing B cells after antigen exposure” value is listed as “had CD20-expressing B cells”. The “mouse antibody titer to the antigen not administered (anti-FVIII after GAA, anti-GAA after FVIII)” value in the data set with C57B/6 control mice (C57B/6 control mice) and with engrafted mice [2] (engrafted mice) was “none” each time. Moreover, the “human antibody titer to the antigen not administered (anti-FVIII after GAA, anti-GAA after FVIII)” value in the data set on C57B/6 control mice (C57B/6 control mice, specificity control of titer assay) was “None”; with engrafted mice [2] (engrafted mice, specificity control of titer assay) it was “None”. The “percent of C57B/6 mice that developed mouse antibodies to the administered antigen” value with C57B/6 control mice (six (FVIII), 5 (GAA), three (IFN-β), three (AAV9) C57B/6 mice) amounted to 100%; in the data set on C57B/6 control mice (three C57B/6 mice, first experiment (FIG. 8B, 8D)), 100%. In addition, in the data set with engrafted mice [2] (12 (FVIII), 14 (GAA), eight (IFN-β), 11 (AAV9) engrafted mice, antigen Day 29 and Day 36, blood Day 43, ELISA), the “percent of engrafted mice that developed human antibodies to the administered antigen” value was determined as 100%. Besides, the “engrafted mice that developed mouse antibodies to the administered antigen” value in the data set on engrafted mice [2] (antigen Day 29 and Day 36, blood Day 43, ELISA) is listed as “none”. Also, the “engrafted mice that developed human antibodies to the administered antigen (number of mice)” value in the data set on engrafted mice [2] (three engrafted mice (HD1, HD2, HD3), antigen on Day 29 and Day 36, blood on Day 43, ELISA) is “all three”. In addition, the “observed immunogenicity rate in the engrafted mice” value in the data set with engrafted mice [2] (three engrafted mice, human antibodies to administered antigen, antigen Day 29 and Day 36, blood Day 43) is “about 100%”.
